Results on 1 molecule are retold here after US11286293.

Where “and” joins values, the source holds several entries; their conditions need not be identical. Equal entries are not always repeated. Where two headings read alike, the source gives them in different places.

Holding throughout (assay): SPR
In general terms: In SPR one partner is held on a chip, and binding of the other changes the refractive index at the surface.

Experiment [1] concerns the target T1, Tissue factor (TF) extracellular domain (human, UniProt P13726).
T1 chain: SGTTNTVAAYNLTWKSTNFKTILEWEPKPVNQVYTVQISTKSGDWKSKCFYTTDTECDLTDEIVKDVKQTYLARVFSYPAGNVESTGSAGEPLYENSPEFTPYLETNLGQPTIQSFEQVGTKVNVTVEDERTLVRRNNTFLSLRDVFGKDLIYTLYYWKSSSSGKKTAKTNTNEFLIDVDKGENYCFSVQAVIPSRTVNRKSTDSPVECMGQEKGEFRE

Experiment [2] concerns the target T1, Tissue factor (TF) extracellular domain.
Experiment [3] shares this target.
The target is the same in experiment [4].

B1: D3H44 WT Fab (antibody)
chain 1: EVQLVESGGGLVQPGGSLRLSCAASGFNIKEYYMHWVRQAPGKGLEWVGLIDPEQGNTIYDPKFQDRATISADNSKNTAYLQMNSLRAEDTAVYYCAR
chain 2: DIQMTQSPSSLSASVGDRVTITCRASRDIKSYLNWYQQKPGKAPKVLIYYATSLAEGVPSRFSGSGSGTDYTLTISSLQPEDFATYYCLQHG
Regarding B1, the Kd (in general, the equilibrium constant for the complex coming apart) was 0.052 nM in experiment [1]; 0.056 nM in experiment [2]; 0.0522 nM and 0.0622 nM in experiment [3]; 0.06 nM in experiment [4].
